Reference: paper PMC2868900, “Interaction between Thymidylate Synthase and Its Cognate mRNA in Zebrafish Embryos”

Tests used:
[1] = target: T1, thymidylate synthase (TS) (zebrafish, UniProt A0ACM8Q3Q5 1-318); test: EMSA; 100 ng TS; 37 C, 10 min; 100 ng TS (200 ng in Fig. 5B legend), 1 ng 32P TS mRNA; non-denaturing 5% acrylamide gel (60:1); binding buffer, salt and pH not given (cited ref. 16); conditions: protein: recombinant, tags: His-tag removed by thrombin, chain copies: 2, hairpin (MFold)
[2] = target: T1, thymidylate synthase (TS); test: competition EMSA; vs 32P full-length TS mRNA; 37 C, 10 min; 100 ng TS (200 ng in Fig. 5B legend), 1 ng 32P TS mRNA; non-denaturing 5% acrylamide gel (60:1); binding buffer, salt and pH not given (cited ref. 16); conditions: protein: recombinant; tags: His-tag removed by thrombin; chain copies: 2; hairpin (MFold), 6 nt loop

T1 sequence (A0ACM8Q3Q5 entry or part of it): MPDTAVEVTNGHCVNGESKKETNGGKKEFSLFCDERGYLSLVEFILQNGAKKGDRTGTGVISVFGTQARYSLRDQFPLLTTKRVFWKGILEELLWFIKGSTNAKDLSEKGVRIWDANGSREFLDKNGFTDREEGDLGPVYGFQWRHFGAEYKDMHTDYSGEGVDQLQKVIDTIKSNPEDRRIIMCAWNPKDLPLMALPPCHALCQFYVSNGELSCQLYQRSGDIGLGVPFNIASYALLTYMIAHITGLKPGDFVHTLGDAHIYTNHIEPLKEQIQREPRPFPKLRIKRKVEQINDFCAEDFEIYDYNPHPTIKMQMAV

CUCUUGUUGUGCAGGAU (structured_RNA) [Δ20-TS RNA]: no binding [1].

CUCUUCAUGUGCUGCAGGAU (structured_RNA) [Δ20-18-TS RNA]: no binding ([1]; 5 nt loop).

CUCUUGUUGUAAAGCAGGAU (structured_RNA) [Δ20-23-TS RNA (Δ20-22 in Table 1)]: no binding ([1]; 4 nt loop).

For CUCUUGUUGUGCUGCAGGAU (structured_RNA) [TS:N20 (TS13-32)], the IC50 [2] was 0.62 ± 0.2 nM.
